In patent US20170101470A1 (PROTHENA BIOSCIENCES, published 2017):

T1: human MCAM domain 1 hFc construct (human, UniProt P43121 19-129)
T1 construct: One of the 'various MCAMhFc domains' loaded on the ForteBio sensors; also called MCAMhFc domain 1
T1 sequence: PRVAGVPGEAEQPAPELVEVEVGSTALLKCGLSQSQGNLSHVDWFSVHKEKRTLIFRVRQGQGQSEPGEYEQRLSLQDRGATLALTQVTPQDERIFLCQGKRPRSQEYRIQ

T2: human MCAM expressed on CHO cells (full length human MCAM gene) (human, UniProt P43121 24-646)
T2 construct: also called hMCAM expressing CHO cells; CD146
T2 chain: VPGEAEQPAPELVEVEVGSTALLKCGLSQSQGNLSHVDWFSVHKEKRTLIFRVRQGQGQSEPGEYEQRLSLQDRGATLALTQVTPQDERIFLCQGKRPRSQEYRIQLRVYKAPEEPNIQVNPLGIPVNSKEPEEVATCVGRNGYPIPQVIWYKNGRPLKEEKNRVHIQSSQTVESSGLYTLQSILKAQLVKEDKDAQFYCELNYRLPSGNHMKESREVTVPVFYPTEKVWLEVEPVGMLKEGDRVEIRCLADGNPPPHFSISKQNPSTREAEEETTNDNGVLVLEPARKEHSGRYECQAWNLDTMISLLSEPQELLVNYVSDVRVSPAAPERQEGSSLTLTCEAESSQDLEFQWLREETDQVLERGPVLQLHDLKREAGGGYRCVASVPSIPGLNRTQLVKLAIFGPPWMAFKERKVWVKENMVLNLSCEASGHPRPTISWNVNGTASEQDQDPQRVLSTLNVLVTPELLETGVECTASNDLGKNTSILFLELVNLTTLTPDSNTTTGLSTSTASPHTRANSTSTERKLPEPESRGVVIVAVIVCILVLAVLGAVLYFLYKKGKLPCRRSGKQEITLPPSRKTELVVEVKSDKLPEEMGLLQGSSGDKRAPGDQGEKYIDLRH

T3: human MCAM-Fc protein (extracellular domain of human MCAM fused to human IgG) (human, UniProt P43121 24-559)
T3 construct: also called hMCAM-Fc; MCAMhFc
T3 chain: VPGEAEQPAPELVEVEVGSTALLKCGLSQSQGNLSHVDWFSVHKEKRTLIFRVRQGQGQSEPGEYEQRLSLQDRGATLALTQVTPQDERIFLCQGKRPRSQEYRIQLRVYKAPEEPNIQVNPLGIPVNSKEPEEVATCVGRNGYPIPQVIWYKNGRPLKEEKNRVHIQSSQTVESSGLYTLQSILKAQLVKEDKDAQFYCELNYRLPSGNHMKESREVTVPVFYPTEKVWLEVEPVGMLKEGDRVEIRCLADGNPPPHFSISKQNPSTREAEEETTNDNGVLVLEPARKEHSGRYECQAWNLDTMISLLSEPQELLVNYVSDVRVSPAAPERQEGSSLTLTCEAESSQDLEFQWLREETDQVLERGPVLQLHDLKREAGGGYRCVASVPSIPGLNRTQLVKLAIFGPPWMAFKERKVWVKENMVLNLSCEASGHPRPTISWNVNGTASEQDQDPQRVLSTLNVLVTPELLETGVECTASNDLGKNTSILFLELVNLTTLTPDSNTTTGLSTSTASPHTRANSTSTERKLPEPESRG

T4: human MCAM domain 2 hFc construct (human, UniProt P43121 139-242)
T4 construct: One of the 'various MCAMhFc domains' loaded on the ForteBio sensors; also called MCAMhFc domain 2
T4 sequence: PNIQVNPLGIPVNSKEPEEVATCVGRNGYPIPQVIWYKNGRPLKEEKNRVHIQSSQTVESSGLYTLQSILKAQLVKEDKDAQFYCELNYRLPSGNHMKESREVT

T5: human MCAM domains 1 and 2 hFc construct (human, UniProt P43121 19-242)
T5 construct: One of the 'various MCAMhFc domains' loaded on the ForteBio sensors
T5 sequence: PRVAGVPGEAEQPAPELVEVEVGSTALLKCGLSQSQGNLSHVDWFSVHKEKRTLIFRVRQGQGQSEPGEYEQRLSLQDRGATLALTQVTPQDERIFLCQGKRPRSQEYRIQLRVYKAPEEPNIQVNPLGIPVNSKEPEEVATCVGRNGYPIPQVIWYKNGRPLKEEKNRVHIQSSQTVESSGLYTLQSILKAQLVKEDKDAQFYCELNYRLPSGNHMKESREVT

T6: human MCAM domain 3 hFc construct (human, UniProt P43121 244-321)
T6 construct: One of the 'various MCAMhFc domains' loaded on the ForteBio sensors; also called MCAMhFc domain 3
T6 sequence: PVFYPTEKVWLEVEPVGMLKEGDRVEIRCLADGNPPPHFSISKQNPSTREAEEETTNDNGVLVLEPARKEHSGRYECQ

T7: recombinant hMCAM-His (human, UniProt P43121 24-559)
T7 chain: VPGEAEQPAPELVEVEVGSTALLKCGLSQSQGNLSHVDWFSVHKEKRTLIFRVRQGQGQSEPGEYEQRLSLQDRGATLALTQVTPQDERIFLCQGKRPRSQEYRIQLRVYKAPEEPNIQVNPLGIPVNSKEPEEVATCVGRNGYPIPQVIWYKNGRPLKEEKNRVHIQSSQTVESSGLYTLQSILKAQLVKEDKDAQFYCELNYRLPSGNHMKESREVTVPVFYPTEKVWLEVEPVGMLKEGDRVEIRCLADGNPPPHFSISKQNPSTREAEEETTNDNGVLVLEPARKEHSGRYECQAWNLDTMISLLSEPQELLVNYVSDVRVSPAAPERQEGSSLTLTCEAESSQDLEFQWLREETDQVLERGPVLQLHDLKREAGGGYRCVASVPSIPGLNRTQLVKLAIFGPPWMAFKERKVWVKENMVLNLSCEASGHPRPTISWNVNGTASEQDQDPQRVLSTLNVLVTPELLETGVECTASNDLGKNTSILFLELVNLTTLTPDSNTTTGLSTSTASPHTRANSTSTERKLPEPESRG


Tests used:
[1] = molecular target: T1, human MCAM domain 1 hFc construct; assay: ForteBio Octet Red, MCAMhFc domains on anti-human IgG Fc sensors
Text: (§1) The following protocol was used: ForteBio anti-human IgG Fc biosensors were used to immobilize various MCAMhFc domains including full length MCAMhFc protein on to biosensor surface. […] After loading these samples into a black 96 well plate, the Octet Red was programmed as follows: 60 seconds for baseline #1; 180 seconds for loading various domains; 60 seconds for baseline #2; 180 seconds for association of antibody to domain; and 240 seconds for dissociation of antibody from domain.
(§2) Reagents and Supplies Used: [0358] 1. MCAMhFc final concentration @ 5 ug/ml [0359] […] 3. ForteBio anti-human IgG Fc Capture (AHC) biosensors for kinetics experiments, cat#18-5060 [0361] 4. Block 96 well plate from Greiner Bio-one, cat#655209 [0362] 5. ForteBio Octet Red machine [0363] 6. Fresh tissue culture medium, DMEM with 20% FCS, was used as buffer for dilution

[2] = molecular target: T2, human MCAM expressed on CHO cells (full …); assay: flow cytometry: blocking of recombinant human laminin 411 (20 ug/ml) binding to CHO cells expressing human MCAM
Protocol: The 87 independent mouse fusion clones and 26 independent rat fusion clones described in Example 1 above as being capable of (i) binding to human MCAM, and (ii) blocking the interaction between human MCAM and the α-4 chain of laminin were further characterized as follows. First, IC50 quantitation for the ability of the monoclonal antibody to block the binding of human MCAM to the α-4 chain of laminin was determined as follows. CHO cells expressing human MCAM were incubated with an anti-human MCAM antibody (at various concentrations) for 30 minutes at 4 degrees Celsius. […] Unbound laminin was then washed away, and the laminin bound to the surface of the cells was detected with fluorescently labeled anti-laminin antibodies. After washing, the amount of laminin bound to the surface was detected by flow cytometry, and IC50s were calculated based on the mean fluorescent intensity.
Amino acid and nucleic acid sequences of the heavy and light chains of these antibodies, and their hypervariable regions, are provided in SEQ ID NOs:29-92. […] As such, each of these specific monoclonal antibodies was very capable of binding to human MCAM and inhibiting the interaction of cell-expressed human MCAM with its α-4 laminin binding ligand.

[3] = molecular target: T3, human MCAM-Fc protein (extracellular …); assay: summary sentence of Example 3 (ForteBio, MCAMhFc)
Text: as §1, §2

[4] = molecular target: T4, human MCAM domain 2 hFc construct; assay: ForteBio Octet Red, MCAMhFc domains on anti-human IgG Fc sensors
Text: as §1, §2

[5] = molecular target: T5, human MCAM domains 1 and 2 hFc construct; assay: as above
Text: as §1, §2

[6] = molecular target: T6, human MCAM domain 3 hFc construct; assay: ForteBio Octet Red, MCAMhFc domains on anti-human IgG Fc sensors, antibody at 5 ug/ml
Text: as §1, §2

recombinant hMCAM-His [7] = molecular target: T7, recombinant hMCAM-His; assay: competitive ELISA on coated hMCAM-His, competitor biotinylated rodent or chimeric 2120; IC50 relative to rodent 2120
Protocol: The apparent affinities of the humanized antibodies were compared to the parental rodent or chimeric antibody in a competitive ELISA according to the following protocol: ELISA plates were coated with recombinant hMCAM-His, and blocked with casein buffer to prevent non-specific binding. Biotinylated rodent or chimeric antibody was added at a subsaturating concentration, in the presence or absence of 3× increasing concentrations of unlabeled competitor (humanized antibody, rodent, or chimeric). After washing to remove unbound antibody, streptavidin HRP was added to allow detection of the biotinylated antibody. The ELISA was developed with TMB substrate and the OD450 was measured. The IC50 of the unlabeled competitor was determined using the GraphPad Prism5 software.

[8] = molecular target: T2, human MCAM expressed on CHO cells (full …); assay: laminin/FACS assay: blocking of recombinant laminin 411 binding to hMCAM expressing CHO cells, relative to rodent 2120, Expt#1
Protocol: (§3) Following incubation for 30-45 minutes, the cells were washed and anti-laminin conjugated to AF650 (NovusBio) was added to detect the bound laminin. The cells were run on a flow cytometer to measure the laminin binding signal.

[9] = molecular target: T2, human MCAM expressed on CHO cells (full …); assay: laminin/FACS assay: blocking of recombinant laminin 411 binding to hMCAM expressing CHO cells, relative to rodent 2120, Expt#2
Protocol: as §3

recombinant hMCAM-His [10] = molecular target: T7, recombinant hMCAM-His; assay: ForteBio Octet Red, antibody on anti-human Fc sensors, hMCAMHis analyte, 1:1 fit; affinity relative to rodent 2120, first Forte column
Protocol: The affinities were measured using the ForteBio Octet Red. Anti-human Fc sensors were used to capture the humanized antibodies, and several concentrations of hMCAMHis analyte were used to determine the affinity using a 1:1 fitting model.

binding result [1]	IC50 [2] [mg/L]	binding result [3]	binding result [4]	binding result [5]	binding result [6]	Fold over rodent (ELISA) (recombinant hMCAM-His [7]) [fold]	Fold over rodent (Blocking) [8] [fold]	Fold over rodent (Blocking) [9] [fold]	Fold over rodent (Forte) (recombinant hMCAM-His [10]) [fold]	Binder
no binding (tested: 5 ug/ml)	0.29									rat anti-human MCAM monoclonal antibody clone 2107.4.10 (antibody, V domains shown, Rat hybridoma antibody) VH: QVQLKESGPGLVQSSQTLSLTCTVSGFSLTSNGVSWVRQPPGKGLEWIAAISSGGSTYYNSAFKSRLSISRNTSKSQVLLKMNSLQTEDTGMYFCARHRPFYFDYWGQGVMVTVSS VL: DIQVTQSPSLLSASVGDRVTLNCKGSQNIYKSLAWFRLKRGEAPKLLIYDANSLQTGIPSRFSGSGSGTDFTLTITSLQPEDVATYFCQQYYSGYTFGAGTKLELK
no binding (tested: 5 ug/ml)	0.431	binds	no binding (tested: 5 ug/ml)	no binding (tested: 5 ug/ml)	binds					mouse anti-human MCAM monoclonal antibody clone 1414.1.2 (antibody, V domains shown, Mouse hybridoma antibody) VH: EIQLQQTGPELVKPGASVKISCKASGYSFTDYIMLWVKQSHGKSLEWIGNINPYSGSSGYNLKFKGKATLTVDKSSSTAYMQLNSLTSEDSAVYYCARGKDFAMDYWGQGTSVTVSS VL: DIVMSQSPSSLAVSAGEKVTMSCKSSQSLLNSSTRKNFLAWYQQKPGQSPKLLIYWASTRESGVPDRFTGSGSGTDFTLTISSVQAEDLAVYYCKQSYNRYTFGGGTKLEIK
						3.1	2	3.5	8.8	humanized anti-MCAM antibody h2120_VH1 + h2120_VL1 (antibody, V domains shown, Human IgG1 / human kappa; also called h2120VH1VL1; Standard VH + standard VL) VH: QVTLKESGPVLVKPTETLTLTCTVSGFSLTSNGVSWVRQPPGKALEWIAAISSGGTTYYNSAFKSRLTISRDTSKSQVVLTMTNMDPVDTATYYCARRYGYGWYFDFWGQGTLVTVSS VL: DIQMTQSPSSLSASVGDRVTITCKASQNIYNSLAWYQQKPGKAPKVLIFNANSLQTGIPSRFSGSGSGTDFTLTISSLQPEDFATYYCQQFYSGYTFGQGTKLEIK
						5	3.8	5.6	17.4	humanized anti-MCAM antibody h2120_VH4 + h2120_VL3 (antibody, V domains shown, Human IgG1 / human kappa; also called h2120VH4VL3; N-Q deamidate VH + conservative VL) VH: QVTLKESGPVLVKPTETLTLTCTVSGFSLTSQGVSWVRQPPGKALEWIAAISSGGTTYYNSAFKSRLTISRDTSKSQVVLTMTNMDPVDTATYYCARRYGYGWYFDFWGQGTLVTVSS VL: DIQMTQSPSSLSASVGDRVTINCKASQNIYNSLAWYQQKPGKAPKVLIFNANSLQTGIPSRFSGSGSGTDFTLTISSLQPEDFATYYCQQFYSGYTFGQGTKLEIK
						3.1	4.6	12.6	10.8	humanized anti-MCAM antibody h2120_VH1 + h2120_VL2 (antibody, V domains shown, Human IgG1 / human kappa; also called h2120VH1VL2; Standard VH + aggressive VL) VH: QVTLKESGPVLVKPTETLTLTCTVSGFSLTSNGVSWVRQPPGKALEWIAAISSGGTTYYNSAFKSRLTISRDTSKSQVVLTMTNMDPVDTATYYCARRYGYGWYFDFWGQGTLVTVSS VL: DIQMTQSPSSLSASVGDRVTITCKASQNIYNSLAWYQQKPGKAPKVLIFNANSLQTGVPSRFSGSGSGTDFTLTISSLQPEDFATYYCQQFYSGYTFGQGTKLEIK
no binding (tested: 5 ug/ml)	0.469	binds	no binding (tested: 5 ug/ml)	no binding (tested: 5 ug/ml)	binds					mouse anti-human MCAM monoclonal antibody clone 1174.1.3 (antibody, V domains shown, Mouse hybridoma antibody) VH: QIQLVQSGPELKKPGETVKISCKASGYTFTNYGMNWVKQAPGKGLKWMGWINTYTGEPTYADDFKGRFALSLETSASTAYLQINNLKNEDMATYFCARYRYNKYERAMDYWGQGTSVTVSS VL: DIVLTQSPASLAVSLGQRATISCRASKSVSTSGYSYMYWYQQKPGQPPKLLIYLASNLESGVPARFSGSGSGTDFTLNIHPVEEEDAATYYCQHSRELPFTFGSGTKLEIK
